B1: M15 (plant-produced COVA2-15, conventional IgG1) (antibody, V domains shown)
VH: QVQLLESGGGLVQPGGSLRLSCAASGFTFSSYAMSWVRQAPGKGLEWASAISGSGGSTYYADSVEGRFTISRDNSKNTLYLQMNSLRAEDTAVYYCAKDTGYCGDDCYIKLIRGGPDYWGQGTLVTVSS
VL: DIVMTQSPLSLPVTLGQPASISCRSSQSLVYSDGNTFLNWFQQRPGQSPRRLIYQVSNRDSGVPDRFSGSGSGTDFTLKISRVEAEDVGVYYCMQGTHWPRTFGQGTKLEIK
B2: S15 (plant-produced COVA2-15, single-chain (sc)Fv-Fc format) (Fc fusion, human)
VH: B1 VH
VL: B1 VL

Molecular target: T1, SARS-CoV-2 RBD (Wuhan), hexahistidine-tagged (SARS-CoV-2, UniProt P0DTC2)
T1 construct: also called recombinant RBD protein
Assay: BLI
Conditions: both partners purified

| Binder | binding result |
| --- | --- |
| B1 | binds |
| B2 | binds |

Reference: article PMC11672753 (Plant Biotechnology Journal, 2024)
